Laboratory results published in patent US20240390512A1, “METHODS OF TREATING CHEMOTHERAPY-RESISTANT CANCER WITH AN ANTIBODY-DRUG CONJUGATE” (DAIICHI SANKYO COMPANY, LIMITED, priority 2021, published 2024).
Residue numbers refer to the chain shown, from its start.

T1: human CDH6 (Homo sapiens, UniProt P55285)
T1 construct: expressed in transfected cells; host or cells: 293α cells (HEK293 stably expressing integrin αv and β3)
T1 sequence (P55285 19-790): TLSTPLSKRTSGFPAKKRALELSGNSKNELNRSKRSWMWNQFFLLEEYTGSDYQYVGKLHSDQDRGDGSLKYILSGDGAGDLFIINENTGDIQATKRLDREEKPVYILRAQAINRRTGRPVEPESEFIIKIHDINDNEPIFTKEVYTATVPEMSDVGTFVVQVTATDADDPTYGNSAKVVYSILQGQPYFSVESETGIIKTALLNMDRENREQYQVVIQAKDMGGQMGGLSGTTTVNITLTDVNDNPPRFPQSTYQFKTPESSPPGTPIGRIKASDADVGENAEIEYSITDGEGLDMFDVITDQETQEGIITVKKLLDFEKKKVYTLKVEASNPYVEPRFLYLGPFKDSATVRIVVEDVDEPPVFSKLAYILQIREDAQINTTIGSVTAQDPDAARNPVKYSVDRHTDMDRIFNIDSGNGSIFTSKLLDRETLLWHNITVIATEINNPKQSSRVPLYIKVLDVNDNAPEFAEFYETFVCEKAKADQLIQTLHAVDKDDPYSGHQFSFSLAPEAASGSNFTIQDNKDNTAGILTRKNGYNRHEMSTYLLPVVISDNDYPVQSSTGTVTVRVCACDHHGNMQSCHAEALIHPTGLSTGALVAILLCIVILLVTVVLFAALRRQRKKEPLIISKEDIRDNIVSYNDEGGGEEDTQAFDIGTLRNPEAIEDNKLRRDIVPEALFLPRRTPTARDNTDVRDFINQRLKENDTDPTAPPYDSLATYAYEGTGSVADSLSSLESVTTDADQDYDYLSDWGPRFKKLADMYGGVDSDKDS

B1: rG056: rat anti-human CDH6 monoclonal antibody produced by hybridoma rG056; variable regions SEQ ID NO: 30 and 35 (antibody, listed as Rattus norvegicus, V domains shown)
VL: DVQMTQSPSSLAASPGESVSISCRATKSIGIYLAWYQQKPGKTFKLLIYSGSTLQSGTPSRFSGSGSGTDFTLTIRSLEPEDFGLYFCQQFYENPFTFGSGTKLEIRRA
VH: EVQLQESGPGLVKPSQSLSLTCSVTDYSITTYFWGWIRKFPGNKMEWMGYMSYRGGTSYNPSLKSRISITRDTSKNQFFLQLNSVTTEDTATYYCARCPNYGGHSLVFDYWGQGVMVTVSS
B2: rG055: rat anti-human CDH6 monoclonal antibody produced by hybridoma rG055; variable regions SEQ ID NO: 20 and 25 (antibody, listed as Rattus norvegicus, V domains shown)
VL: DVQMTHSPSYLAASPGESVSISCKTSKNISNYLVWYQQKPGEAYKLLIYSGSTLQSGTPSRFSGSGSGTDFTLTIRSLEPEDFGLYFCQQYYEKPFTFGSGTKLEIKRA
VH: EVQLQESGPGLVRPSQSLSLSCSVTDYSITSNYWGWIRRFPGNKMEWMGYITYSGYTSYNPSLQSRISITRDTSKNQFFLQLNSVTAEDTATYYCARSINHGGYSYVVDAWGPGASVTVSS
B3: rG061: rat anti-human CDH6 monoclonal antibody produced by hybridoma rG061; variable regions SEQ ID NO: 40 and 45 (antibody, listed as Rattus norvegicus, V domains shown)
VL: B2 VL with H6Q, T25A, S26T, N28S, V34A, L46V, F87S, F96L
VH: EVQLQESGPGLVKPSQSLSLTCSVTGYSITTYYWGWIRKFPGNKMEWMGYISYSGRTSYNPSLKSRMSITRDASKNQFFLQLNSVTTDDTATYYCARSPINHGGYWYFDFWGPGTMVTVSS
B4: rG019: rat anti-human CDH6 monoclonal antibody produced by hybridoma rG019; variable regions SEQ ID NO: 10 and 15 (antibody, listed as Rattus norvegicus, V domains shown)
VL: DIQMTQSPSLLSASVGDRVTLNCKASQNIYKNLAWYQQKLGEGPKLLIYDANTLQTGIPSRFSGSGSGSDFTLTISSLQPEDVATYFCQQYYSGWAFGGVTNLELKRA
VH: QVQLQQSGAELVKPGSSVKISCKASGYTFTRNFMHWIKQQPGNGLEWIGWIYCGDGETEYNQKFNGKATLTADRSSSTAYMELSRLTSEDSAVYFCARGVYGGFAGGYFDFWGQGVMVTVSS

The molecules below were run on cynomolgus monkey CDH6 (assay: Hybridoma screening by Cell-ELISA and flow cytometry). Settings: hybridoma culture supernatant; cells transfected with pcDNA3.1-cynoCDH6.
Type: binding
Description: (§1) 293α cells (a stable expression cell line derived from HEK293 cells expressing integrin αv and integrin β3) were prepared at 5×10^5 cells/mL in DMEM medium supplemented with 10% FBS. In accordance with transduction procedures for using Lipofectamine 2000 (Thermo Fisher Scientific Inc.), DNA of pcDNA3.1-hCDH6 or pcDNA3.1-cynoCDH6, or pcDNA3.1 as a negative control was introduced into the 293α cells, and the cells were dispensed in an amount of 100 μL/well onto a 96-well plate (Corning Inc.). Thereafter, the cells were cultured under conditions of 37° C. and 5% CO2 in DMEM medium supplemented with 10% FBS for 24 to 27 hours. The obtained transfected cells were used for Cell-ELISA in an adhesive state.
(§2) The culture supernatant of the 293α cells transfected with the expression vector prepared in Reference Example 1)-4-1 was removed, and the culture supernatant from each hybridoma was then added to the 293α cells transfected with pcDNA3.1-hCDH6 or pcDNA3.1-cynoCDH6, or pcDNA3.1. The cells were left standing at 4° C. for 1 hour. The cells in the wells were washed once with PBS (+) supplemented with 5% FBS, and thereafter, Anti-Rat IgG-Peroxidase antibody produced in rabbit (Sigma-Aldrich Co. LLC) that had been 500-fold diluted with PBS (+) supplemented with 5% FBS was added to the wells. The cells were left standing at 4° C. for 1 hour. The cells in the wells were washed three times with PBS (+) supplemented with 5% FBS, and thereafter, OPD coloring solution (which had been prepared by dissolving o-phenylenediamine dihydrochloride (Wako Pure Chemical Industries, Ltd.) and H2O2 in an OPD solution (0.05 M trisodium citrate, 0.1 M disodium hydrogen phosphate 12-water; pH 4.5), so that the substances became 0.4 mg/ml and 0.6% (v/v), respectively, was added in an amount of 100 μL/well to the wells. A coloring reaction was carried out with occasional stirring. Thereafter, 1 M HCl was added to the plate (100 μL/well) to terminate the coloring reaction, followed by measurement of the absorbance at 490 nm using a plate reader (ENVISION: PerkinElmer, Inc.).
293T cells were seeded in a 225-cm^2 flask (Sumitomo Bakelite Co., Ltd.) at 5×10^4 cells/cm^2, and the cells were then cultured overnight under conditions of 37° C. and 5% CO2 in DMEM medium supplemented with 10% FBS. pcDNA3.1-cynoCDH6 or pcDNA3.1 as a negative control was introduced into the 293T cells using Lipofectamine 2000, and the cells were further cultured overnight under conditions of 37° C. and 5% CO2. […]
The binding specificity to cynomolgus monkey CDH6 of an antibody produced from the human CDH6- and cynomolgus monkey CDH6-binding antibody-producing hybridomas that had been selected by Cell-ELISA in Reference Example 1)-4 was further confirmed by flow cytometry. […] The data was analyzed using FlowJo (Tree Star, Inc.). […]

cynomolgus monkey CDH6, sequence (as listed by the source): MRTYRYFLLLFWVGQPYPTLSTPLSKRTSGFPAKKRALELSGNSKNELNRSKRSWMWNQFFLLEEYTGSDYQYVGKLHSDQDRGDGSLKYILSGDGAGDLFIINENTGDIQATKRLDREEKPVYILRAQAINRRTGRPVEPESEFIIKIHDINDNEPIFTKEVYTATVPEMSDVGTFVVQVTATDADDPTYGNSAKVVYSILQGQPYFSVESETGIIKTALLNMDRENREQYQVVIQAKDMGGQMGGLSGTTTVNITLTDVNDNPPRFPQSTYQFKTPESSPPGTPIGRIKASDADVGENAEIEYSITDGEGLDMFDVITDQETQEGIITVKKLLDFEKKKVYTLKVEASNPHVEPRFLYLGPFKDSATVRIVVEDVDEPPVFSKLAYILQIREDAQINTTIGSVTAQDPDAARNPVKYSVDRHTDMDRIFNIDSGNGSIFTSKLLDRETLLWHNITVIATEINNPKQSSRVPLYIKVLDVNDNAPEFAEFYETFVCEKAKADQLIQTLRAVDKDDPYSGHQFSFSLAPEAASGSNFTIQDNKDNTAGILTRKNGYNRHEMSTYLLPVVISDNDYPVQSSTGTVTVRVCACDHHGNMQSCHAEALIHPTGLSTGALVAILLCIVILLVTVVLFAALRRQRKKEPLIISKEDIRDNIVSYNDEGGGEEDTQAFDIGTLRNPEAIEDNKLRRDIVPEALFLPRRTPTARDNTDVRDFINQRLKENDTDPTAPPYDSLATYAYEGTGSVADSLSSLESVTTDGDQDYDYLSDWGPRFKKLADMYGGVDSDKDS

Molecule | binding to monkey CDH6
B1 | bind specifically and strongly
B2 | bind specifically and strongly
B3 | bind specifically and strongly
B4 | bind specifically and strongly

Each molecule was assayed against T1, human CDH6 (assay: Hybridoma screening by Cell-ELISA). Settings: hybridoma culture supernatant; 293α cells transfected with pcDNA3.1-hCDH6.
Type: binding
Description: as §1, §2
The heavy chain subclass and the light chain type of the antibody were determined using a RAT MONOCLONAL ANTIBODY ISOTYPING TEST KIT (DS Pharma Biomedical Co., Ltd.).

Molecule | binding to human CDH6
B1 | bind specifically and strongly
B2 | bind specifically and strongly
B3 | bind specifically and strongly
B4 | bind specifically and strongly
